Test results reported in US20200384080A1 (published 2020).
One block for each binder: values may come before it.

Experiments:
[1] = biological target: T1, ALK4-Fc:ActRIIB-Fc heterodimer (human, UniProt P36896 24-126; Q13705 20-134); assay: Biacore, receptor captured by anti-Fc
T1 construct: also called ALK4-Fc:ActRIIB-Fc heterodimeric complex; ALK4:ActRIIB heterodimer; not shown: Linkers (TGGG on ALK4, GGG on ActRIIB) and the engineered Fc pair; They differ only in Fc substitutions
T1 sequence 1: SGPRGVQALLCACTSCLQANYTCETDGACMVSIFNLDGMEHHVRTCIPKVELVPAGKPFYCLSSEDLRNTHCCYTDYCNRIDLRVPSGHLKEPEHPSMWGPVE
T1 sequence 2: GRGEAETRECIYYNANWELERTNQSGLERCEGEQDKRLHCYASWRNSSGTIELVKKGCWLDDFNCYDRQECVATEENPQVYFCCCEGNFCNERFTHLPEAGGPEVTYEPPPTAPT
Experimental: (§1) A Biacore™-based binding assay was used to compare ligand binding selectivity of the ALK4-Fc:ActRIIB-Fc heterodimeric complex described above with that of ActRIIB-Fc and ALK4-Fc homodimer complexes. The ALK4-Fc:ActRIIB-Fc heterodimer, ActRIIB-Fc homodimer, and ALK4-Fc homodimer were independently captured onto the system using an anti-Fc antibody. Ligands were injected and allowed to flow over the captured receptor protein. Results are summarized in the table below, in which ligand off-rates (kd) most indicative of effective ligand traps are denoted in bold font.

GDF11 [2] = biological target: T2, GDF11 (UniProt O95390 299-407); assay: cell-based or functional assay
T2 sequence (looked up): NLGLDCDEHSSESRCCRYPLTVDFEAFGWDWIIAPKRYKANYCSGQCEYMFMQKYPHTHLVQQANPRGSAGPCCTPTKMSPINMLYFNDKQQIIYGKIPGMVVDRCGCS

activin A = biological target: T3, activin A (UniProt P08476 311-426); assay: cell-based or functional assay
T3 sequence (looked up): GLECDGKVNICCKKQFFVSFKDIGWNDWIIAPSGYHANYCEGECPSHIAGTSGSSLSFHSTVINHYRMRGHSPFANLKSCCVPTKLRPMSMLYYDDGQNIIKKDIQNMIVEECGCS

GDF11 [3] = biological target: T2, GDF11; assay: Biacore, receptor captured by anti-Fc
Experimental: as §1

GDF11 [4] = biological target: T2, GDF11; assay: Biacore, receptor captured by anti-Fc; footnote: very low signal
Experimental: as §1

- Kd [1]: 2.7 nM
- koff [1]: 0.0055 s⁻¹
- kon [1]: 2e+06 M⁻¹ s⁻¹
B1: BMP6 (ligand, UniProt P22004 375-513, looked up)
chain: SASSRRRQQSRNRSTQSQDVARVSSASDYNSSELKTACRKHELYVSFQDLGWQDWIIAPKGYAANYCDGECSFPLNAHMNATNHAIVQTLVHLMNPEYVPKPCCAPTKLNAISVLYFDDNSNVILKKYRNMVVRACGCH

- KI, cell-based assay (GDF11 [2]): ~1000 nM
- KI, cell-based assay (activin A): ~1000 nM
B2: ActRIIB-Fc A64 20-134 (Fc fusion)
chain: GRGEAETRECIYYNANWELERTNQSGLERCEGEQDKRLHCYASWANSSGTIELVKKGCWLDDFNCYDRQECVATEENPQVYFCCCEGNFCNERFTHLPEAGGPEVTYEPPPTAPTGGGTHTCPPCPAPELLGGPSVFLFPPKPKDTLMISRTPEVTCVVVDVSHEDPEVKFNWYVDGVEVHNAKTKPREEQYNSTYRVVSVLTVLHQDWLNGKEYKCKVSNKALPVPIEKTISKAKGQPREPQVYTLPPSREEMTKNQVSLTCLVKGFYPSDIAVEWESNGQPENNYKTTPPVLDSDGSFFLYSKLTVDKSRWQQGNVFSCSVMHEALHNHYTQKSLSLSPGK

- KI, cell-based assay (GDF11 [2]): ~10 nM
- KI, cell-based assay (activin A): ~10 nM
B3: ActRIIB(20-134)-hFc (Fc fusion)
chain: GRGEAETRECIYYNANWELERTNQSGLERCEGEQDKRLHCYASWRNSSGTIELVKKGCWLDDFNCYDRQECVATEENPQVYFCCCEGNFCNERFTHLPEAGGPEVTYEPPPTAPTGGGTHTCPPCPAPELLGGPSVFLFPPKPKDTLMISRTPEVTCVVVDVSHEDPEVKFNWYVDGVEVHNAKTKPREEQYNSTYRVVSVLTVLHQDWLNGKEYKCKVSNKALPVPIEKTISKAKGQPREPQVYTLPPSREEMTKNQVSLTCLVKGFYPSDIAVEWESNGQPENNYKTTPPVLDSDGSFFLYSKLTVDKSRWQQGNVFSCSVMHEALHNHYTQKSLSLSPGK

- kon (GDF11 [3]): 4.8e+06 M⁻¹ s⁻¹
- Kd (GDF11 [4]): 0.27 nM
B4: ALK4-Fc homodimer (Fc fusion)
chain: SGPRGVQALLCACTSCLQANYTCETDGACMVSIFNLDGMEHHVRTCIPKVELVPAGKPFYCLSSEDLRNTHCCYTDYCNRIDLRVPSGHLKEPEHPSMWGPVE
notes: not shown: linker and Fc of the homodimer not specified
